This note sets out measurements from publication PMC4617720, “Antigenic Characterization of the HCMV gH/gL/gO and Pentamer Cell Entry Complexes Reveals Binding Sites for Potently Neutralizing Human Antibodies” (PLoS Pathogens, 2015).

The labels stand for the following.
T1: HCMV glycoprotein H (gH), soluble, terminated at amino acid 715 (human cytomegalovirus (HCMV), Merlin …, UniProt Q6SW67 24-715)
T1 construct: source: 293EBNA cells, transfected with individual plasmids encoding each subunit
T1 sequence: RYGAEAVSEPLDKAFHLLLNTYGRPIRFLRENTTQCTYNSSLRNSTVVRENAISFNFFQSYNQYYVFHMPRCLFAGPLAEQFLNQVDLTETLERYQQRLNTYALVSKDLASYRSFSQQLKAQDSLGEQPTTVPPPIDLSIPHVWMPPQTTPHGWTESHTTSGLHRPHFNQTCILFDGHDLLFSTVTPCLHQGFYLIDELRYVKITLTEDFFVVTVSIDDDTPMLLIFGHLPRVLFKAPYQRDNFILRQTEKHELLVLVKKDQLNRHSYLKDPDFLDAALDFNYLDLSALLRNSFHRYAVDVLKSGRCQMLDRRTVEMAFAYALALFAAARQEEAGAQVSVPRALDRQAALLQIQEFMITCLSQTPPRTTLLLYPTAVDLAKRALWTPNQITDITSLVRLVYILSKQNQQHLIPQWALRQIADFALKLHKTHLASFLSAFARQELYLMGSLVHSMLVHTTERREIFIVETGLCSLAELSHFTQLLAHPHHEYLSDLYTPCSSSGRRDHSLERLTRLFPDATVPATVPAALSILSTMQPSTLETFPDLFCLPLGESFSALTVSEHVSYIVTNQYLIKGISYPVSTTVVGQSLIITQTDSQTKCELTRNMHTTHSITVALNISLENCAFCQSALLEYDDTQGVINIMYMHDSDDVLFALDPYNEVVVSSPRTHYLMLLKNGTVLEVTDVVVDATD

B1: HCMV UL131A-K27R (natural protein)
chain: QCQRETAERNDYYRVPHYWDACSRALPDQTRYKYVEQLVDLTLNYHYDASHGLDNFDVLKRINVTEVSLLISDFRRQNRRGGTNKRTTFNAAGSLAPHARSLEFSVRLFAN
notes: also called UL131A-K27R mutation; source: 293EBNA cells, transfected with individual plasmids encoding each subunit
B2: HCMV glycoprotein L (gL) (natural protein)
chain: AAVSVAPTAAEKVPAECPELTRRCLLGEVFEGDKYESWLRPLVNVTGRDGPLSQLIRYRPVTPEAANSVLLDEAFLDTLALLYNNPDQLRALLTLLSSDTAPRWMTVMRGYSECGDGSPAVYTCVDDLCRGYDLTRLSYGRSIFTEHVLGFELVPPSLFNVVVAIRNEATRTNRAVRLPVSTAAAPEGITLFYGLYNAVKEFCLRHQLDPPLLRHLDKYYAGLPPELKQTRVNLPAHSRYGPQAVDAR
notes: source: 293EBNA cells, transfected with individual plasmids encoding each subunit
B3: HCMV UL130 (natural protein)
chain: SPWSTLTANQNPSPPWSKLTYSKPHDAATFYCPFLYPSPPRSPLQFSGFQRVSTGPECRNETLYLLYNREGQTLVERSSTWVKKVIWYLSGRNQTILQRMPRTASKPSDGNVQISVEDAKIFGAHMVPKQTKLLRFVVNDGTRYQMCVMKLESWAHVFRDYSVSFQVRLTFTEANNQTYTFCTHPNLIV
notes: source: 293EBNA cells, transfected with individual plasmids encoding each subunit; not shown: Strep-tag II, C-terminal, kept

What all share (details): both partners purified
In the assay “HCMV UL130” the target is B3. Briefly: cross-linking; purified unbound Pentamer (with UL131A-K27R), 36 pmol, 600-fold excess of DSSG-d0/d6 (links lysines up to 25 Å apart), 10 mM HEPES pH 7.5, 300 mM NaCl, RT, 30 min; cross-linked peptides identified by LC-MS/MS (xQuest).
Assay [1] deals with T1, HCMV glycoprotein H (gH), soluble, …. Briefly: non-reducing SDS-PAGE with western blot; purified Pentamer, non-boiled and non-reduced (-/-), blotted with rabbit polyclonal anti-Pentamer antibody. For orientation: In western blotting, separated proteins are transferred to a membrane and probed.
For assay [2] the target is unchanged. As to the kind of experiment: cross-linking; purified unbound Pentamer (with UL131A-K27R), 36 pmol, 600-fold excess of DSSG-d0/d6 (links lysines up to 25 Å apart), 10 mM HEPES pH 7.5, 300 mM NaCl, RT, 30 min; cross-linked peptides identified by LC-MS/MS (xQuest).

On to B1, for which, in the assay with HCMV UL130, the binding result is listed as “binds”.

Consider B2, for which the binding result in assay [1] is given as “binds”.

Turning to B3, the binding result in assay [2] is reported as “binds”.
